Measured values reported in patent US20040071656A1 (published 2004).

Key:
[1] = target: T1, Biotinylated recombinant Hsp70 (human, UniProt P0DMV8 2-641); assay: fluorescence microscopy on LPS-stimulated ANA1 cells
T1 construct: mature; also called biotinylated Hsp70; biotin-labeled Hsp70; not shown: His tag
Description: ANA-1 cells were cultured in VLE-RPMI 1640 (Biochrom), supplemented with 10% FCS, 2 mM L-glutamine and antibiotics. For fluorescence microscopy, ANA1 cells were either stimulated with LPS (20 μg/ml, Sigma, Germany), or kept in an LPS-free medium (mock treatment) for 7 h. After stimulation, cells were harvested and incubated with 100 nM biotinylated Hsp70, biotinylated GST, or Hsp70/peptide C-biotin complex for 30 min at 0° C. in VLE-RPMI 1640. After incubation cells were processed for staining with streptavidin-TRITC (Sigma, Germany), fixed with paraformaldehyde and analyzed by fluorescence microscopy (Axiovert 35, Zeiss) as described (Sondermann et al., 2000). […] Twenty-four h post-transfection cells were incubated with 250 nM biotinylated Hsp70, biotinylated GST or Hsp70/peptide C-biotin complex for 30 min at 0° C. in DMEM, fixed, stained with streptavidin-TRITC (Sigma, Germany), and analyzed by fluorescence microscopy as described (Sondermann et al., 2000, idem). […] Stably transfected cell lines were analyzed by immunoblotting for CD40 expression using an anti-CD40 antibody (CSA180, Stressgen). […]

[2] = target: T2, Recombinant human His6-tagged Hsp70 (human, UniProt P0DMV8 2-641); assay: titration of peptide C in the GST-CD40 pull-down of His6-Hsp70-ADP, quantified immunoblot
T2 construct: mature; also called His6-Hsp70; human Hsp70
Description: For binding assays with recombinant Hsp70 and its domains, 3 μM His6-Hsp70 or its His6-tagged domains were incubated with 2 mM ATP, 2 mM ADP or 2 mM ADP and 28 μM peptide C in 50 μl binding buffer (10 mM MOPS/KOH, pH 7.2, 150 mM KCl and 3 mM MgCl2) for 30 min at 37° C. In competition experiments binding was probed with either a 10-fold excess of Hsp70, the two domains, or DnaK, or with a 5-fold excess of Hip or Bag 1 for 10 min at 0° C. To this end, Hsp70, N70, C70 and DnaK were preincubated with ADP, ATP and peptide C as described above. For comparison of CD40 binding of Hsp70 and its N-terminal domain, Hsp70 was preincubated in the presence or absence (mock treatment) of a 30-fold molar excess of peptide C. 3 μM of GST or GST-CD40 was added to the samples and incubated for 20 min at 16° C. For titration of peptide C, 5- to 50-fold excess of peptide C (15-150 μM) was added to the preincubation of Hsp70. Thereafter the samples were combined with 20 μl of 1% BSA-treated Glutathione Sepharose 4 Fast Flow and incubated in the presence of 2 mM DTT for another 20 min at 16° C. […] 10 μl of the eluates were subjected to SDS-PAGE and analyzed by immunoblotting using a Penta-His-antibody (Quiagen). Blot signals were quantified by Quantity One (Biorad).

T2 sequence (P0DMV8 2-641): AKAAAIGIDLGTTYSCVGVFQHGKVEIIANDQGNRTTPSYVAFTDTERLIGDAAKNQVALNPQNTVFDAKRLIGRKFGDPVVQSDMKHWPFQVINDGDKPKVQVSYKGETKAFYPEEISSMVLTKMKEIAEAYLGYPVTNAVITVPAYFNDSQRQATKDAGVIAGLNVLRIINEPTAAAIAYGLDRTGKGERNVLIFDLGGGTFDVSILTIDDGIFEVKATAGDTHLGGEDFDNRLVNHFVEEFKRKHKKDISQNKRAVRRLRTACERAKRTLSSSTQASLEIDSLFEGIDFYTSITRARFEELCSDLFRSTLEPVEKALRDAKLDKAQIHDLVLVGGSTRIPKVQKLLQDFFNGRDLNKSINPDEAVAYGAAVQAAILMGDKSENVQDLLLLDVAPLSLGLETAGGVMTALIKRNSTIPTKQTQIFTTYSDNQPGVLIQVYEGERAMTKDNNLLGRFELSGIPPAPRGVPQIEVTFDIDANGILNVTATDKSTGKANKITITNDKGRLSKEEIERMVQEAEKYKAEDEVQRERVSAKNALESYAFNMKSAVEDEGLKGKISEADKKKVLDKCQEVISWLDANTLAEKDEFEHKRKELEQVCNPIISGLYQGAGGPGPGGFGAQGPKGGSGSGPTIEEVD
T1 sequence (P0DMV8 2-641): as above

Binder	binding result [1]	ka (saturable effect of peptide C on binding of Hsp70-ADP to CD40) [2] [µM]
Endogenous CD40 of LPS-stimulated murine ANA1 macrophage cells (receptor, UniProt P27512 20-289, looked up, whole, on cells) LGQCVTCSDKQYLHDGQCCDLCQPGSRLTSHCTALEKTQCHPCDSGEFSAQWNREIRCHQHRHCEPNQGLRVKKEGTAESDTVCTCKEGQHCTSKDCEACAQHTPCIPGFGVMEMATETTDTVCHPCPVGFFSNQSSLFEKCYPWTSCEDKNLEVLQKGTSQTNVICGLKSRMRALLVIPVVMGILITIFGVFLYIKKVVKKPKDNEILPPAARRQDPQEMEDYPGHNTAAPVQETLHGCQPVTQEDGKESRISVQERQVTDSIALRPLV	binds	–
GCEVFGLGWRSYKH (Synthetic Hsp70 substrate peptide; also called peptide substrate; substrate peptide) [Peptide C (GCEVFGLGWRSYKH)]	–	~30
